Patent US9752119B2, “Substantially pure human retinal progenitor, forebrain progenitor, and retinal pigment epithelium cell cultures and methods of making the same” (Wisconsin Alumni Research Foundation, priority 2009, dated 2017)

How the values were obtained:
human ESC = assay: Eye field specification from differentiating human ESC: Pax6 and Rx gene expression (RT-PCR/qPCR) and neuroepithelial colony formation; assay type: cell-based; conditions: for appearance of neuroepithelial colonies / expression of Pax6 and Rx: Wnt3A and BMP4 added together (100 ng/ml) over the first 10 days of differentiation; for appearance of neuroepithelial colonies: morphology at day 10; for expression of Pax6 and Rx: qPCR
Procedure: (1) Making human ESC aggregates: Human ESC were grown on irradiated MEFs to approximately 80% confluence in a 6-well plate. Upon reaching 80% confluence, the human ESC medium was aspirated off and 1 ml of dispase (1 mg/ml, Gibco #17105-041) solution was added to each well. After 5 minutes, the cells were examined for curling of human ESC colony edges, indicative of the colonies beginning to lift off of the plate. If noticeable curling was evident, the dispase solution was aspirated off of the plate and replaced with 1 ml of DMEM/F12 per well. The human ESC colonies were mechanically lifted from the plate by pipetting a few times with a 10 ml pipette. When all colonies were detached, the cells were transferred to a 15 ml conical tube and allowed to settle by gravity. After the aggregates had settled (˜5 minutes), the supernatant was aspirated and replaced with 10 ml of Embryoid Body (EB) medium, which contained DMEM/F12 (1:1) (Gibco #11330-065), 20% knockout serum replacement (Gibco #10828-028), 0.1 mM β-mercaptoethanol, 1 mM L-glutamine (Gibco #25030-081) and 1% MEM nonessential amino acids (Gibco #11140-050). The pellet of cells was resuspended by repeated pipetting 2-3 times with a 10 ml pipette, just enough to separate the individual aggregates while minimizing their dissociation. Aggregates were approximately 400 μm in diameter. These aggregates were then transferred to a T25 flask and placed in the incubator. The next day, the aggregates formed floating, sphere-like structures. (If significant attachment of human ESC and/or residual MEF cells was observed, the unattached aggregates were transferred to a new flask.) These cells were fed with fresh EB medium every day for the first 4 days.
(2) Differentiating to anterior neuroepithelial fate: The aggregates were then collected by settling in a 15 ml conical tube and washed once with 10 ml of DMEM/F12. Upon resettlement of the aggregates, the supernatant was removed and the aggregates were re-suspended in 10 ml of Neural Induction Medium (NIM) and transferred to a new T25 flask. NIM included DMEM/F12 (1:1) (Gibco #11330-065), 1% N2 supplement (Gibco #17502-048), 1% MEM nonessential amino acids (Gibco #11140-050), and 2 μg/ml heparin (Sigma #H-3149). Two days later, a 6-well plate was coated with laminin (20 μg/ml diluted in DMEM) and the coated plate was left in the incubator overnight. By this time, aggregates had become brighter and acquired clearly defined edges. The next day, approximately 50 aggregates were plated in each well of a 6 well plate. An additional 2 ml of fresh NIM was added to each well. The cells were then placed in the incubator, making sure the cells were distributed evenly in the plate by gently shaking the plate back and forth as well as side-to-side a few times. Within the first couple of days (by a total of 9 days), most aggregates attached to the laminin-coated surface. […]
RT-PCR experiments were done as follows to check gene expression: Total RNA was isolated from cell cultures from various stages of differentiation using the RNAeasy® kit (Qiagen) and treated with DNAse I. Reverse transcription was performed with the Superscript III RT-PCR kit (Invitrogen). […] For quantitative RT-PCR (qPCR), reactions were performed with Sybr Green Supermix (Applied Biosystems) and the Opticon 2 DNA Engine and Opticon Monitor 2.02 software (MJ Research). […]

human ESC cultures = assay: Mitf and Chx10 gene expression (qPCR) in human ESC cultures treated during optic vesicle and optic cup stages; assay type: cell-based; conditions: SU5402 added days 16-40, measured at day 40
Procedure: The columnar rosette cells found in the center of these colonies were denser than those cells in the periphery, so they were easily dislodged by this pipetting technique, leaving the non-rosette cells attached to the plate. We took care not to break up the lifted colonies during this step. Detached colonies were collected in a 15 ml conical tube and spun in a centrifuge at 600 rpm for 1 minute to effectively pellet the detached colonies while leaving most single cells in suspension in the culture medium. The supernatant was then aspirated from the tube and the clusters were re-suspended in 10 ml of Retinal Differentiation Medium (RDM) and transferred to a new T25 flask. RDM included DMEM/F12 (3:1) supplemented with 2% B27. […] Within 3-5 days after detachment of the cells (19th-21st day of the differentiation), neurospheres readily adopted one of two major appearances. […]
RT-PCR experiments were done as follows to check gene expression: Total RNA was isolated from cell cultures from various stages of differentiation using the RNAeasy® kit (Qiagen) and treated with DNAse I. Reverse transcription was performed with the Superscript III RT-PCR kit (Invitrogen). […] For quantitative RT-PCR (qPCR), reactions were performed with Sybr Green Supermix (Applied Biosystems) and the Opticon 2 DNA Engine and Opticon Monitor 2.02 software (MJ Research). […] Quantitative RT-PCR primers were run for 40 cycles.

hiPSCs = assay: Neural/retinal specification of hiPSCs after addition of BMP and Wnt inhibitors (immunocytochemistry, FACS); assay type: cell-based, human; conditions: for expression of Pax6: recombinant Dkk1 and Noggin added together from 2-4 days of differentiation, immunocytochemistry; for expression of Chx10: treatment with Dkk1 and Noggin together, after 20 days of differentiation, FACS
Procedure: Immunocytochemistry was done as follows to check protein expression: human ESC aggregates or neurospheres were plated onto poly-ornithine- and laminin-coated coverslips overnight to allow for attachment, and then fixed with 4% paraformaldehyde. Cells were then permeabilized in 0.2% Triton X-100 for 10 minutes. For Mitf immunocytochemistry, cells were incubated in ice-cold 90% methanol for 10 minutes as an additional permeabilization step. Labeled cells were visualized with either Alexafluor 488- or Cy3-conjugated secondary antibodies, and nuclei were counterstained with either Hoechst or To-Pro-3 nuclear dyes. Images were obtained from a Nikon TE600 fluorescent microscope equipped with a SPOT camera and software or from z-stacks of cell clusters obtained on a Nikon Cl Laser Scanning Confocal microscope.
FACS analysis was done as follows to quantify the percentage of cells acquiring expression of Pax6 and Rx: Cells were dissociated with either trypsin or Accutase® (Chem icon), washed with a fluorescence-activated cell sorting (FACS) buffer (PBS, 0.1% sodium azide, and 2% donkey serum), and fixed with 0.1% paraformaldehyde for 10 minutes. Cells were then permeabilized with ice-cold 90% methanol for 20 minutes and incubated overnight in primary antibodies at a concentration of 1 μg of antibody per 1 million cells in FACS buffer. Antibody information is found in Table 2. Immunostaining was then completed with either donkey-anti-mouse or donkey-anti-rabbit Alexa 488 secondary antibodies for 2 hours, after which cells were washed with FACS buffer, and then sorted with a Becton Dickinson FACSCaliber. Data retrieved from the sorting was analyzed with CellQuest Pro software (Becton Dickinson).
To test this hypothesis, inhibitors of BMP signaling (Noggin or Dorsomorphin) and Wnt signaling (Dkk-1 or XAV-939) were added to cultures from days 2 to 4 of differentiation, a timeframe that was shown in Example 1 to be prior to the onset of neural specification based on Pax6 and Rax expression. […] This was further confirmed through immunocytochemistry, where cells treated with BMP and Wnt inhibitors were more likely to express the neural transcription factors Pax6 and Sox1 as well as eye field transcription factors Lhx2 and Six6.

[1] = system: hiPSC-derived vesicular neurospheres; assay: RPE specification from hiPSC-derived vesicular neurospheres in the presence of Activin (bright field microscopy, qPCR); assay type: cell-based, human
Procedure: RT-PCR experiments were done as follows to check gene expression: Total RNA was isolated from cell cultures from various stages of differentiation using the RNAeasy® kit (Qiagen) and treated with DNAse I. Reverse transcription was performed with the Superscript III RT-PCR kit (Invitrogen). PCR was performed with GoTaq PCR master mix (Promega) and subsequent PCR products were run on 2% agarose gels. For quantitative RT-PCR (qPCR), reactions were performed with Sybr Green Supermix (Applied Biosystems) and the Opticon 2 DNA Engine and Opticon Monitor 2.02 software (MJ Research). All primer sets listed were run for 30 cycles at an annealing temperature of 60° C. unless otherwise noted. Quantitative RT-PCR primers were run for 40 cycles.
Activin signaling has previously been implicated in this cell fate determination and as such, we sought to determine if Activin could influence these cells to adopt an RPE fate. […] Based on this feature, these aggregates could be manually isolated to generate highly enriched populations of RPE. When plated onto a laminin-coated substrate and in the presence of the mitogens FGF2 and EGF, these cells were capable of proliferation and outgrowth from the aggregate (FIG. 18D). […] Further maturation of these treated cells confirms that Activin signaling plays a role in the acquisition of an RPE fate at the expense of the neural retina, as Activin-treated cultures expressed RPE-specific genes such as RPE65 at higher levels than the untreated cells, whereas untreated cells expressed higher levels of genes associated with the neural retina including Brn3A (FIG. 18E-F).

| Molecule | expression of Pax6 (hiPSCs) | expression of Chx10 (hiPSCs) | appearance of neuroepithelial colonies (human ESC) | expression of Pax6 and Rx (human ESC) | further results |
| --- | --- | --- | --- | --- | --- |
| Cc1c[nH]c(/C=C2\C(=O)Nc3ccccc32)c1CCC(=O)O [SU5402] | – | – | – | – | Pax6 and Rx expression (human ESC; 10 μM SU5402, day 10 of differentiation, RT-PCR): complete loss; increase in Mitf gene expression (human ESC cultures): 11.8 fold; reduction of Chx10 expression (human ESC cultures): 15.9 fold |
| Dkk1: recombinant Dkk1, inhibitor of Wnt signaling (protein, UniProt O94907 32-266, looked up) Dickkopf-related protein 1: TLNSVLNSNAIKNLPPPLGGAAGHPGSAVSAAPGILYPGGNKYQTIDNYQPYPCAEDEECGTDEYCASPTRGGDAGVQICLACRKRRKRCMRHAMCCPGNYCKNGICVSSDQNHFRGEIEETITESFGNDHSTLDGYSRRTTLSSKMYHTKGQEGSVCLRSSDCASGLCCARHFWSKICKPVLKEGQVCTKHRRKGSHGLEIFQRCYCGEGLSCRIQKDHHQASNSSRLHTCQRH | restored | increased | – | – | – |
| Wnt3A: recombinant Wnt3a, added to differentiating human ESC (protein, UniProt P56704 19-352, looked up) Protein Wnt-3a: SYPIWWSLAVGPQYSSLGSQPILCASIPGLVPKQLRFCRNYVEIMPSVAEGIKIGIQECQHQFRGRRWNCTTVHDSLAIFGPVLDKATRESAFVHAIASAGVAFAVTRSCAEGTAAICGCSSRHQGSPGKGWKWGGCSEDIEFGGMVSREFADARENRPDARSAMNRHNNEAGRQAIASHMHLKCKCHGLSGSCEVKTCWWSQPDFRAIGDFLKDKYDSASEMVVEKHRESRGWVETLRPRYTYFKVPTERDLVYYEASPNFCEPNPETGSFGTRDRTCNVSSHGIDGCDLLCCGRGHNARAERRREKCRCVFHWCCYVSCQECTRVYDVHTCK | – | – | abolished | abolished | – |
| Activin: Activin-A added to vesicular neurosphere cultures to influence RPE fate (protein, UniProt P08476 311-426, looked up, Inhibin beta A chain) Inhibin beta A chain: GLECDGKVNICCKKQFFVSFKDIGWNDWIIAPSGYHANYCEGECPSHIAGTSGSSLSFHSTVINHYRMRGHSPFANLKSCCVPTKLRPMSMLYYDDGQNIIKKDIQNMIVEECGCS | – | – | – | – | development of pigmented, RPE-like phenotype ([1]; Activin added upon isolation of vesicular neurospheres until a total of 40 days of differentiation): a subset of the neurospheres was capable of developing a pigmented phenotype; expression of neural retinal-associated genes ([1]; Activin-A treated versus untreated vesicular spheres, qPCR): lower levels; expression of RPE-specific genes such as RPE65 ([1]; Activin-treated versus untreated cultures, qPCR): higher levels |
| BMP4: recombinant BMP4, added to differentiating human ESC (protein, UniProt P12644 293-408, looked up) Bone morphogenetic protein 4: SPKHHSQRARKKNKNCRRHSLYVDFSDVGWNDWIVAPPGYQAFYCHGDCPFPLADHLNSTNHAIVQTLVNSVNSSIPKACCVPTELSAISMLYLDEYDKVVLKNYQEMVVEGCGCR | – | – | abolished | abolished | – |
| Noggin: recombinant Noggin, inhibitor of BMP signaling (protein, UniProt Q13253 28-232, looked up) Noggin: QHYLHIRPAPSDNLPLVDLIEHPDPIFDPKEKDLNETLLRSLLGGHYDPGFMATSPPEDRPGGGGGAAGGAEDLAELDQLLRQRPSGAMPSEIKGLEFSEGLAQGKKQRLSKKLRRKLQMWLWSQTFCPVLYAWNDLGSRFWPRYVKVGSCFSKRSCSVPEGMVCKPSKSVHLTVLRWRCQRRGGQRCGWIPIQYPIISECKCSC | restored | increased | – | – | – |
